± gives the uncertainty stated by the source.
Assay: protein stability index of a GFP-peptide fusion (yeast GPS) (PSI 1-4); higher = more stable; sorted into four equal gates, so the index is relative within each strain
In short: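 Tiled yeast protein peptides of 17 residues were each joined downstream of GFP, on plasmids that also express Cherry. The pooled library was maintained in yeast, and mid-log cultures in leucine-free medium were sorted into four equal gates on the GFP/Cherry ratio. Plasmids from every gate were amplified by PCR and sequenced on Illumina, with barcodes linking reads to strains. The protein stability index of a peptide is its gate-number-weighted read frequency summed over the gates.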

Sequence	protein stability index (ubr1∆)	protein stability index (doa10∆)	protein stability index (pdr5∆)	protein stability index (san1∆)
DQYLWYEADQRKLFPNW [PRP8]	3.13 ± 0.19	–	–	–
DRDESSPYAAMLAAQDV [RPS14A]	3.27 ± 0.078	3.02 ± 0.088	3.21 ± 0.072	2.55 ± 0.09
DRFIELISDQLLEFFEL [YML103C/NUP188]	2.74 ± 0.049	2.56 ± 0.067	2.42 ± 0.053	2.4 ± 0.053
DRKIEFPPPSVAARAEI [RPT6]	1.39 ± 0.052	2.02 ± 0.094	2.36 ± 0.11	1.83 ± 0.096
DRKNRAPPQRPRFNREN [RPS26A]	3.02 ± 0.091	2.81 ± 0.11	2.64 ± 0.082	3.29 ± 0.11
DRMDVDEDESQNIAQSS [HRT1]	2.43 ± 0.05	2.37 ± 0.072	2.66 ± 0.062	2.21 ± 0.051
DRVAKVLTYPEKVTRYN [RPO31]	2.98 ± 0.17	2.87 ± 0.12	2.92 ± 0.14	2.94 ± 0.29
DSALRYSILGDRFKYRS [POP4]	–	3.27 ± 0.18	3.04 ± 0.23	3.23 ± 0.098
DSDGTRLKGDIFCVGSG [PRE2]	2.45 ± 0.061	2.88 ± 0.057	2.87 ± 0.057	2.93 ± 0.091
DSESDSDSETNHKSKDN [SKP1]	3.1 ± 0.044	2.75 ± 0.053	3.04 ± 0.051	3 ± 0.039
DSFIEKIIPKDISATQL [ITC1]	3.13 ± 0.085	2.96 ± 0.1	3.17 ± 0.12	3.07 ± 0.086
DSFKYEPLAPGNDNLIK [YLR335W/NUP2]	2.85 ± 0.044	2.61 ± 0.061	2.75 ± 0.045	2.63 ± 0.045
DSGIGSNGSGIVAAGGG [CSL4]	3.42 ± 0.058	3.45 ± 0.066	3.34 ± 0.07	3.35 ± 0.052
DSKNTPNVFDKDSYVRI [YDL088C/ASM4]	3.25 ± 0.051	3.01 ± 0.12	3.11 ± 0.048	3.06 ± 0.072
DSLTQNNNNAPIIIYGT [YOR098C/NUP1]	2.92 ± 0.038	2.69 ± 0.047	2.93 ± 0.041	2.8 ± 0.041
DSNGDFNEDQLFSLLEL [RRP46]	2.98 ± 0.1	2.83 ± 0.16	2.82 ± 0.16	3.31 ± 0.069
DSNMDSISSVVSEDLLD [RPN4]	2.45 ± 0.032	2.3 ± 0.073	2.31 ± 0.056	2.76 ± 0.05
DSNSEILNFLNQEDLFE [YML103C/NUP188]	3.14 ± 0.086	2.79 ± 0.12	2.86 ± 0.089	2.76 ± 0.049
DSPASNEDDLTVKLTEI [RPO31]	3.19 ± 0.056	2.94 ± 0.071	3.15 ± 0.068	2.97 ± 0.053
DSSSVSEDSAVFKATSS [FAS1]	3.14 ± 0.083	3 ± 0.089	3.32 ± 0.096	2.98 ± 0.065
DSTQLLETILEEFRNLA [SSN2]	3.2 ± 0.054	2.69 ± 0.076	3.18 ± 0.065	2.85 ± 0.055
DSVENSSNILEDILYYS [SRB8]	2.72 ± 0.059	2.92 ± 0.13	2.74 ± 0.073	2.5 ± 0.058
DSVFSFGPKKENRKKDE [YLR335W/NUP2]	3.03 ± 0.056	3.01 ± 0.091	2.86 ± 0.078	2.9 ± 0.048
DTDKLPIKNRTSKSFSK [SIN4]	2.92 ± 0.068	2.83 ± 0.1	2.85 ± 0.067	2.61 ± 0.11
DTETFDTVNSALENDVA [YML103C/NUP188]	2.69 ± 0.17	–	3.63 ± 0.23	3.16 ± 0.2
DTFVHVTDLSGKETIAR [RPS14B]	2.98 ± 0.058	2.88 ± 0.087	2.98 ± 0.066	2.83 ± 0.062

Sequence	protein stability index (ubr1∆)	protein stability index (doa10∆)	protein stability index (pdr5∆)	protein stability index (san1∆)
DTKDALSTRELAGKVGS [RPC53]	3.08 ± 0.071	2.8 ± 0.08	2.27 ± 0.084	2.79 ± 0.1
DTKSVVGLVMFSQFWYW [RPN2]	2.52 ± 0.04	2.35 ± 0.06	2.3 ± 0.062	2.61 ± 0.097
DTSDIIVDPTAEQLKIS [RRP46]	2.12 ± 0.092	1.79 ± 0.091	2.19 ± 0.097	2.73 ± 0.14
DVAFADGGKTLRACAAN [YMR129W/POM152]	2.36 ± 0.1	1.54 ± 0.18	2.6 ± 0.19	–
DVDPEFYLKYVDIRVGK [RET1]	2.54 ± 0.1	3.31 ± 0.28	2.79 ± 0.16	2.4 ± 0.14
DVEENRSEFIESLLNWI [YJR042W/NUP85]	3.34 ± 0.069	3.19 ± 0.12	3.08 ± 0.085	3.35 ± 0.14
DVETVKREIQEALSEKP [RPC53]	3.35 ± 0.1	3.27 ± 0.15	3.42 ± 0.12	3.17 ± 0.13
DVFTINPHQKDQLIISS [YML103C/NUP188]	2.74 ± 0.24	1.56 ± 0.18	2.19 ± 0.19	1.62 ± 0.24
DVIHFEDSSILQSIVNE [PCI8]	3.47 ± 0.073	3.21 ± 0.089	3.06 ± 0.076	3.04 ± 0.05
DVKLLNPIDIKRRFGEL [RPP1]	2.97 ± 0.047	2.46 ± 0.089	2.7 ± 0.078	2.38 ± 0.14
DVLKDGENNINFQKASA [BRN1]	3.31 ± 0.11	3.31 ± 0.16	3.4 ± 0.12	3.51 ± 0.077
DVPAYNVTSFMPFWKFF [SRB8]	1.56 ± 0.031	1.62 ± 0.037	1.68 ± 0.04	1.5 ± 0.06
DVPGRELKYELIAEESE [RPB2]	–	3.07 ± 0.19	3.01 ± 0.12	–
DVVEYLDKVINKELPIN [RPN8]	3.12 ± 0.19	2.82 ± 0.22	3 ± 0.2	–
DVVGTLSRNGKPVMEVT [FAS1]	2.63 ± 0.08	2.62 ± 0.13	2.81 ± 0.13	2.65 ± 0.12
DWEDEEKYEDEDEEKIL [DSN1]	3.25 ± 0.15	3.28 ± 0.11	2.94 ± 0.16	3.26 ± 0.24
DYGEEIKSGVAKLESLL [MTW1]	3.4 ± 0.087	3.26 ± 0.24	3.11 ± 0.12	3.37 ± 0.13
DYLTLNKVVVNLNDAGL [RPN2]	3.16 ± 0.06	2.73 ± 0.091	3.02 ± 0.08	–
DYNLRIYCYFLIMKLGR [SSN8]	1.39 ± 0.11	1.23 ± 0.084	1.12 ± 0.098	1.36 ± 0.29
DYSEIQRSRRKFSERRK [DSN1]	2.75 ± 0.16	2.86 ± 0.095	3.35 ± 0.24	3.46 ± 0.087
DYVASLNELYQTQQDLP [NSL1]	3.06 ± 0.039	3 ± 0.056	3.19 ± 0.052	3.12 ± 0.058
EAAKLLVDSLATFTSIE [RPN7]	2.68 ± 0.096	3.24 ± 0.18	3.1 ± 0.098	3.24 ± 0.096
EAASSNKSFIVDQGQIY [ITC1]	2.93 ± 0.05	2.92 ± 0.1	2.95 ± 0.068	2.89 ± 0.044
EAIETCKNFEKTQLGST [GAL11]	3.36 ± 0.24	2.51 ± 0.13	3.1 ± 0.19	–
EARAEAINLMGVKNNLL [RPO31]	1.66 ± 0.24	3.35 ± 0.22	1.96 ± 0.15	1.84 ± 0.23
EARFDVLITSYEMVIRE [ISW2]	2.02 ± 0.11	1.87 ± 0.094	1.49 ± 0.089	1.88 ± 0.11

— the supplement of paper PMC9732359
